Results on nine variants are retold here after IntAct's records for PubMed 31515488.

To fix the notation:
B1: Coiled-coil domain-containing protein 33 (Homo sapiens), Q8N5R6-5 (parent)
chain: MGEPGPPSPPAPKAAPGLIDSFSEMNNYRRAMQKMAEDILSLRRQASILEGENRILRSRLAQQEEEEGQGKASEAQNTVSMKQKLLLSELDMKKLRDRVQHLQNELIRKNDREKELLLLYQAQQPQAALLKQYQGKLQKMKALEETVRHQEKVIEKMERVLEDRLQDRSKPPPLNRQQGKPYTGFPMLSASGLPLGSMGENLPVELYSVLLAENAKLRTELDKNRHQQAPIILQQQALPVDPGELGAGGDLTERLQETHGPGHSECTETLPAQDLLSGTSDKFNLLAKLEHAQSRILSLESQLEDSARRWGREKQDLATRLQEQEKGFRHPSNSIIIEQPVSDPPGVAPRGSGGGAGSHRTPKVTGP
partner: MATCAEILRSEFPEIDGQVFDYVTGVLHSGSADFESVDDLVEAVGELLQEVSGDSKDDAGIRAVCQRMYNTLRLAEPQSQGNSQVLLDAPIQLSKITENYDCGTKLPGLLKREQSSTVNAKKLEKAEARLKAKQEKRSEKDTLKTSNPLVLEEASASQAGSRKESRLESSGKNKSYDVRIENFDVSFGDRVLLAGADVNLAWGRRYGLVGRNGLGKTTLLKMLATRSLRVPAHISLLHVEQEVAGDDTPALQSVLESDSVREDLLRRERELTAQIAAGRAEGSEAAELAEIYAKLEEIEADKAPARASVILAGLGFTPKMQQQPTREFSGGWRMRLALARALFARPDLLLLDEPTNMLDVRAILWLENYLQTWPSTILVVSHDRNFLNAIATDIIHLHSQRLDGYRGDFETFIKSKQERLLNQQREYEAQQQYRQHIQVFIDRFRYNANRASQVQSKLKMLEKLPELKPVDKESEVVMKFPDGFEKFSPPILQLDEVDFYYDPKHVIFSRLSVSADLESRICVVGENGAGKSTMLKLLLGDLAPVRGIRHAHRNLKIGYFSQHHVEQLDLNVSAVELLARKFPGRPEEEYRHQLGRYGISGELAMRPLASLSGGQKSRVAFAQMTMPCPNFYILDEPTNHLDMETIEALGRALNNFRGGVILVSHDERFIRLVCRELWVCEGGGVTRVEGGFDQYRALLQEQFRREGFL
B2: Segment polarity protein dishevelled homolog DVL-2 (Homo sapiens), O14641 (parent)
chain: MAGSSTGGGGVGETKVIYHLDEEETPYLVKIPVPAERITLGDFKSVLQRPAGAKYFFKSMDQDFGVVKEEISDDNARLPCFNGRVVSWLVSSDNPQPEMAPPVHEPRAELAPPAPPLPPLPPERTSGIGDSRPPSFHPNVSSSHENLEPETETESVVSLRRERPRRRDSSEHGAGGHRTGGPSRLERHLAGYESSSTLMTSELESTSLGDSDEEDTMSRFSSSTEQSSASRLLKRHRRRRKQRPPRLERTSSFSSVTDSTMSLNIITVTLNMEKYNFLGISIVGQSNERGDGGIYIGSIMKGGAVAADGRIEPGDMLLQVNDMNFENMSNDDAVRVLRDIVHKPGPIVLTVAKCWDPSPQAYFTLPRNEPIQPIDPAAWVSHSAALTGTFPAYPGSSSMSTITSGSSLPDGCEGRGLSVHTDMASVTKAMAAPESGLEVRDRMWLKITIPNAFLGSDVVDWLYHHVEGFPERREARKYASGLLKAGLIRHTVNKITFSEQCYYVFGDLSGGCESYLVNLSLNDNDGSSGASDQDTLAPLPGATPWPLLPTFSYQYPAPHPYSPQPPPYHELSSYTYGGGSASSQHSEGSRSSGSTRSDGGAGRTGRPEERAPESKSGSGSESEPSSRGGSLRRGGEASGTSDGGPPPSRGSTGGAPNLRAHPGLHPYGPPPGMALPYNPMMVVMMPPPPPPVPPAVQPPGAPPVRDLGSVPPELTASRQSFHMAMGNPSEFFVDVM
partner: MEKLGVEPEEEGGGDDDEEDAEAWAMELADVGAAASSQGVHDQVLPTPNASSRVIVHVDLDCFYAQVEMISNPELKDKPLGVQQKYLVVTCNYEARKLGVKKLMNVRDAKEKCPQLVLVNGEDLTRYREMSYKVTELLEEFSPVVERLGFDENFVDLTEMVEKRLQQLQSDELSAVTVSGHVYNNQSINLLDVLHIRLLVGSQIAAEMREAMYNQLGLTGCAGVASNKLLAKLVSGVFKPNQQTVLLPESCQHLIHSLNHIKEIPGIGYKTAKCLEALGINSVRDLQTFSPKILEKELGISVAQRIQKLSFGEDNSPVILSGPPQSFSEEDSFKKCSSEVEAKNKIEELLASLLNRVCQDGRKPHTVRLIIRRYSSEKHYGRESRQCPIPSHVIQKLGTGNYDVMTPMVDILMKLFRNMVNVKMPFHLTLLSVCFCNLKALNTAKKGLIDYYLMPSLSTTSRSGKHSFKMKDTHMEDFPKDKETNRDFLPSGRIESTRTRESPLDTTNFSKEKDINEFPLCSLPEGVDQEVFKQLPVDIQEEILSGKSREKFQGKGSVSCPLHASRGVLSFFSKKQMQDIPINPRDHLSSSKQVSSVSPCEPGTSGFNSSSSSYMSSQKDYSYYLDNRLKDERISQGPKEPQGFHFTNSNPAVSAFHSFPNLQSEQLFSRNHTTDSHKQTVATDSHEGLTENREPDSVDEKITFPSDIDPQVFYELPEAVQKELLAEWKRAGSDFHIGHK
B3: Mediator of RNA polymerase II transcription subunit 18 (Homo sapiens), Q9BUE0 (parent)
chain: MEAPPVTMMPVTGGTINMMEYLLQGSVLDHSLESLIHRLRGLCDNMEPETFLDHEMVFLLKGQQASPFVLRARRSMDRAGAPWHLRYLGQPEMGDKNRHALVRNCVDIATSENLTDFLMEMGFRMDHEFVAKGHLFRKGIMKIMVYKIFRILVPGNTDSTEALSLSYLVELSVVAPAGQDMVSDDMKNFAEQLKPLVHLEKIDPKRLM
partner: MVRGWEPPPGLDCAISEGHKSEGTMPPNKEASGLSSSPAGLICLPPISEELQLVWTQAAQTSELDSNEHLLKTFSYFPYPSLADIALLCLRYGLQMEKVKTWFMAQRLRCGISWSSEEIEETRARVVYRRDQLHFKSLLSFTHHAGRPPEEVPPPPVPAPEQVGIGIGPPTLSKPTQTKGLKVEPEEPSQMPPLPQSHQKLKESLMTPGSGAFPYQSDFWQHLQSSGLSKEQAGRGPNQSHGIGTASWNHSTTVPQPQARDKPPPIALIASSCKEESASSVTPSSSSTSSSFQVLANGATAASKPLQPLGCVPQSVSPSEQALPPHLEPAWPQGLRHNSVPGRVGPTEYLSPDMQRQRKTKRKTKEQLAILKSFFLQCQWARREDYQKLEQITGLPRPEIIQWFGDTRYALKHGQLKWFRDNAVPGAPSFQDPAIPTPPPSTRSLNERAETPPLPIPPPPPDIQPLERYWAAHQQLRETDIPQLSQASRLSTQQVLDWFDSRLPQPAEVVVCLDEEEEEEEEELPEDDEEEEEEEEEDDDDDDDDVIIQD
B4: Zinc finger protein 655 (Homo sapiens), Q8N720 (parent)
chain: MEEIPAQEAAGSPRVQFQSLETQSECLSPEPQFVQDTDMEQGLTGDGETREENKLLIPKQKISEEVHSYKVRVGRLKHDITQVPETREVYKSEDRLERLQEILRKFLYLEREFRQITISKETFTSEKNNECHEPEKSFSLDSTIDADQRVLRIQNTDDNDKYDMSFNQNSASGKHEHLNLTEDFQSSECKESLMDLSHLNKWESIPNTEKSYKCDVCGKIFHQSSALTRHQRIHTREKPYKCKECEKSFSQSSSLSRHKRIHTREKPYKCEASDKSCEASDKSCSPSSGIIQHKKIHTRAKSYKCSSCERVFSRSVHLTQHQKIHKEMPCKCTVCGSDFCHTSYLLEHQRVHHEEKAYEYDEYGLAYIKQQGIHFREKPYTCSECGKDFRLNSHLIQHQRIHTGEKAHECNECGKAFSQTSCLIQHHKMHRKEKSYECNEYEGSFSHSSDLILQQEVLTRQKAFDCDVWEKNSSQRAHLVQHQSIHTKENS
partner: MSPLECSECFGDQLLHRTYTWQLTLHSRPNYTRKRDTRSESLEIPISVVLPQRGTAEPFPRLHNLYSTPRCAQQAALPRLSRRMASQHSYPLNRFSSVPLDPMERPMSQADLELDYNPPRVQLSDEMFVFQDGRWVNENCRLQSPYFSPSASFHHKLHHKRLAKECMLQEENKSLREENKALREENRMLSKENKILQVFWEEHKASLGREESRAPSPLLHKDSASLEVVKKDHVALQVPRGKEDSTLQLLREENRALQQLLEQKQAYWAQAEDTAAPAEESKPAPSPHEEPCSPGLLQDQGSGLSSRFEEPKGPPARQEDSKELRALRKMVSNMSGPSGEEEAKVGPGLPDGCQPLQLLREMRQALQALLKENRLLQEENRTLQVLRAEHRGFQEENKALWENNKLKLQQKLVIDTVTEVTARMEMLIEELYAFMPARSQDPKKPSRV
B5: Origin recognition complex subunit 6 (Homo sapiens), Q9Y5N6 (parent)
chain: MGSELIGRLAPRLGLAEPDMLRKAEEYLRLSRVKCVGLSARTTETSSAVMCLDLAASWMKCPLDRAYLIKLSGLNKETYQSCLKSFECLLGLNSNIGIRDLAVQFSCIEAVNMASKILKSYESSLPQTQQVDLDLSRPLFTSAALLSACKILKLKVDKNKMVATSGVKKAIFDRLCKQLEKIGQQVDREPGDVATPPRKRKKIVVEAPAKEMEKVEEMPHKPQKDEDLTQDYEEWKRKILENAASAQKATAE
partner: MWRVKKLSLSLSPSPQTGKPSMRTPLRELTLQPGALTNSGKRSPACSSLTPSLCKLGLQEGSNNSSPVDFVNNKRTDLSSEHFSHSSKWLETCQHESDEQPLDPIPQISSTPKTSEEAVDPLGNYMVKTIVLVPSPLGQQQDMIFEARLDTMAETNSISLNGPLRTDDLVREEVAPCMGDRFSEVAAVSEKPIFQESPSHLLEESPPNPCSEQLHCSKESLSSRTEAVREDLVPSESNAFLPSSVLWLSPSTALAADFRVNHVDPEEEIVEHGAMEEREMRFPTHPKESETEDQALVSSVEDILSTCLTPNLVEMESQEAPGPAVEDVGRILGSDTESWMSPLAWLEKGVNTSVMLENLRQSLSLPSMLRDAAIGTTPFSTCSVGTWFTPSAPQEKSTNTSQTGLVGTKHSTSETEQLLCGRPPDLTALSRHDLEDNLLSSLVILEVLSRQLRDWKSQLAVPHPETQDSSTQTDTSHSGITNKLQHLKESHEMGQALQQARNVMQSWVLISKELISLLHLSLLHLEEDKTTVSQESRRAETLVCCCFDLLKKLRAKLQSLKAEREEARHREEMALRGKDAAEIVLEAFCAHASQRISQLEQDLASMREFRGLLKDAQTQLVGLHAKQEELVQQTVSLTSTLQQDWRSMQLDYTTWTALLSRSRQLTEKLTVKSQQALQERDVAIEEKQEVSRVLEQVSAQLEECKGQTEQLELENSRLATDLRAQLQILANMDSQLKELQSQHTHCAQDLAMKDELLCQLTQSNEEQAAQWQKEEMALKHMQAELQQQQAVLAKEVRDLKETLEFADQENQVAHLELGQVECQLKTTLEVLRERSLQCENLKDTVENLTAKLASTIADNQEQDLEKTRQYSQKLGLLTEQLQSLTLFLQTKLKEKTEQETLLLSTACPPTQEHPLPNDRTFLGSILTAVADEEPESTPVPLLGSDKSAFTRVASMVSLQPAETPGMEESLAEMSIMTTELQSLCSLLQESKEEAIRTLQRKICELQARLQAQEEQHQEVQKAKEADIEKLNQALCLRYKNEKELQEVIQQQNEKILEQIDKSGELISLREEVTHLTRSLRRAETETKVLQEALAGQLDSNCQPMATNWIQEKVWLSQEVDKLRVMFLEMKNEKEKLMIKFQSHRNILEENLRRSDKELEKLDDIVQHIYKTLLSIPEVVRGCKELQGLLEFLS

The variants in the first assay derive from B1. The following applies: with abcf3_human ABCF3, Q9NUQ8.
As for G196R, the “effect of a mutation on the interaction” value is recorded as “with no effect”.

On to P203L, for which the “effect of a mutation on the interaction” value was “with no effect”.

Regarding R30L, the “effect of a mutation on the interaction” value was “with no effect”.

Consider M25V, for which the “effect of a mutation on the interaction” value is listed as “with no effect”.

In the next assay the parent is B2. The following applies: with poli_human POLI.
Consider A53V, for which the “effect of a mutation on the interaction” value was “with no effect”.

For the variant T535I, the “effect of a mutation on the interaction” value is reported as “with no effect”.

In the next assay the parent is B3. The following applies: with homez_human HOMEZ.
Consider MEAPPVTMMPVTGGTINMVEYLLQGSVLDHSLESLIHRLRGLCDNMEPETFLDHEMVFLLKGQQASPFVLRARRSMDRAGAPWHLRYLGQPEMGDKNRHALVRNCVDIATSENLTDFLMEMGFRMDHEFVAKGHLFRKGIMKIMVYKIFRILVPGNTDSTEALSLSYLVELSVVAPAGQDMVSDDMKNFAEQLKPLVHLEKIDPKRLM [M19V], for which the “effect of a mutation on the interaction” value is given as “with no effect”.

In a further assay the parent is B4. Particulars: with cby2_human CBY2, Q8NA61.
Consider MEEIPAQEAAGSPRVQFQSLETQSECLSPEPQFVQDTDMEQGLTGDGETREENKLLIPKQKISEEVHSYKVRVGRLKHDITQVPETREVYKSEDRLERLQEILRKFLYLEREFRQITISKETFTSEKNNECHEPEKSFSLDSTIDADQRVLRIQNTDDNDKYDMSFNQNSASGKHEHLNLTEDFQSSECKESLMDLSHLNKWESIPNTEKSYKCDVCGKIFHQSSALTRHQRIHTREKPYKCKECEKSFSQSSSLSRHKRIHTREKPYKCEASDKSCEASDKSCSPSSGIIQHKKIHTRAKSYKCSSCERVFSRSVHLTQHQKIHKEMPCKCTVCGSDFCHTSYLLEHQRVHHEEKAYEYDEYGLAYIKQQGIHFREKPYTCSECGKDFRLNSHLIQHQRIHTGEKAHECNECGKAFSQTSCLIQHHKMHRKEKSYECNEYEGSFSHSSDLILQQEVLTRQKAFDGDVWEKNSSQRAHLVQHQSIHTKENS [C466G], for which the “effect of a mutation on the interaction” value was “with no effect”.

The next assay covers variants of B5. The following applies: with spag5_human SPAG5, Q96R06.
MGSELIGRLAPRLGLAEPDMLRKAEEYLRLSRVKCVGLSARTTETSSAVMCLDLAASWMKCPLDRAYLIKLSGLNKETYQSCLKSFECLLGLNSNIGIRDLAVQFSCIEAVNMASKILKSYESSLPQTQQVDLDLSRPLFTSAALLSACKILKLKVDKNKMVATSGVKKAIFDRLCKQLEKIGQQVDREPGDVATPPRKRNKIVVEAPAKEMEKVEEMPHKPQKDEDLTQDYEEWKRKILENAASAQKATAE [K201N]: the “effect of a mutation on the interaction” value was “with no effect”.
